# Measured values reported in article PMC10083716.
# Where a chain is given by its changes, count along the chain named.
# T1: mouse 5-HT3A receptor L353A, full length (mouse) (UniProt P23979)
# T1 sequence: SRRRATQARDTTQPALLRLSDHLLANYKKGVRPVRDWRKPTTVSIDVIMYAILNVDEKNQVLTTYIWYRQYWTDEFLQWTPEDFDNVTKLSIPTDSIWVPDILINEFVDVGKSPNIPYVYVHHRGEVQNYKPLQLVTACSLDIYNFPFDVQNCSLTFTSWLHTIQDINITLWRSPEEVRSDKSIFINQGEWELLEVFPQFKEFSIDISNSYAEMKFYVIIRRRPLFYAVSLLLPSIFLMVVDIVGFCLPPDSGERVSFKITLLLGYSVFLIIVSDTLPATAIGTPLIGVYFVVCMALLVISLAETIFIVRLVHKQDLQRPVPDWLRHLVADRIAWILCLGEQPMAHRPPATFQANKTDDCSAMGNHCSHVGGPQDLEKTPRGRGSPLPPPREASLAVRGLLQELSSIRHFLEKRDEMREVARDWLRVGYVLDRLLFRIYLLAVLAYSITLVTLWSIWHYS
# T2: mouse 5-HT3A receptor R349A, full length (mouse) (UniProt P23979)
# T2 sequence: T1 sequence with R326A, A330L
# T3: mouse 5-HT3A receptor W347A, R349A, L353A, full length (mouse) (UniProt P23979)
# T3 sequence: T1 sequence with W324A, R326A
# T4: mouse 5-HT3A receptor W347A, full length (mouse) (UniProt P23979)
# T4 sequence: T1 sequence with W324A, A330L
# T5: mouse 5-HT3A receptor, wild type, full length (mouse) (UniProt P23979)
# T5 sequence: T1 sequence with A330L
# T6: mouse 5-HT3A receptor W447A, R449A, L454A, full length (mouse) (UniProt P23979)
# T6 sequence: T1 sequence with A330L, W424A, R426A, L431A
# B1: resistance to inhibitors of choline esterase (RIC-3) protein (natural protein)
# chain: SRGKRQEPPPTPEGKLGRFPPMMHHHQAPSDGQTPGARFQRSHLAEAFAKAKGSGGGAGGGGSGRGLMGQIIPIYGFGIFLYILYILFKLSKGKTTAEDGKCYTAMPGNTHRKITSFELAQLQEKLKETEAAMEKLINRVGPNGESRAQTVTSDQEKRLLHQLREITRVMKEGKFIDRFSPEKEAEEAPYMEDWEGYPEETYPIYDLSDCIKRRQETILVDYPDPKELSAEEIAERMGMIEEEESDHLGWESLPTDPRAQEDNSVTSCDPKPETCSCCFHEDEDPAVLAENAGFSADSYPEQEETTKEEWSQDFKDEGLGISTDKAYTGSMLRKRNPQGLE
# Legend:
# [1] = molecular target: T1, mouse 5-HT3A receptor L353A, full length (mouse)
# [2] = molecular target: T2, mouse 5-HT3A receptor R349A, full length (mouse)
# [3] = molecular target: T3, mouse 5-HT3A receptor W347A, R349A, L353A, full length (mouse)
# [4] = molecular target: T4, mouse 5-HT3A receptor W347A, full length (mouse)
# [5] = molecular target: T5, mouse 5-HT3A receptor, wild type, full length (mouse)
# [6] = molecular target: T6, mouse 5-HT3A receptor W447A, R449A, L454A, full length (mouse)
binder,measurement,setting,value
B1,"remaining current (%): peak 5-HT-evoked current of 5-HT3A channels co-expressed with RIC-3 divided by that of the channels alone; TEVC in Xenopus oocytes, 10 uM serotonin",[1],50%
same,"remaining current (%): peak 5-HT-evoked current of 5-HT3A channels co-expressed with RIC-3 divided by that of the channels alone; TEVC in Xenopus oocytes, 10 uM serotonin",[2],33.9%
same,"remaining current (%): peak 5-HT-evoked current of 5-HT3A channels co-expressed with RIC-3 divided by that of the channels alone; TEVC in Xenopus oocytes, 10 uM serotonin",[3],40.6%
same,"remaining current (%): peak 5-HT-evoked current of 5-HT3A channels co-expressed with RIC-3 divided by that of the channels alone; TEVC in Xenopus oocytes, 10 uM serotonin",[4],43.4%
same,"remaining current (%): peak 5-HT-evoked current of 5-HT3A channels co-expressed with RIC-3 divided by that of the channels alone; TEVC in Xenopus oocytes, 10 uM serotonin",[5],15.6%
same,"remaining current (%): peak 5-HT-evoked current of 5-HT3A channels co-expressed with RIC-3 divided by that of the channels alone; TEVC in Xenopus oocytes, 10 uM serotonin",[6],36.9%
